Test results: US20070031863A1

Target: CD70 (human) (UniProt P32970)
Test: cell-based or functional assay

CD70 (human), sequence (P32970 whole entry): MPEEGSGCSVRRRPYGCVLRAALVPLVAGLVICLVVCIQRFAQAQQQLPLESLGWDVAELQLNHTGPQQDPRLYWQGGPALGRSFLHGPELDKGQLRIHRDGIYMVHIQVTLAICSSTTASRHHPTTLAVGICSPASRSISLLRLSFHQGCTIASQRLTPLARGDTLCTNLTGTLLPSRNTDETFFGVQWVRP

Q: How did the IgG synthesis by purified B cells stimulated with LPS (control) turn out when “anti-CD70 monoclonal antibody (HNE51) (Dako)” was run?
A: 125 µg/mL
